B1: Cullin-1 (Arabidopsis thaliana (Mouse-ear cress)), Q94AH6 (parent)
chain: MERKTIDLEQGWDYMQTGITKLKRILEGLNEPAFDSEQYMMLYTTIYNMCTQKPPHDYSQQLYDKYREAFEEYINSTVLPALREKHDEFMLRELFKRWSNHKVMVRWLSRFFYYLDRYFIARRSLPPLNEVGLTCFRDLVYNELHSKVKQAVIALVDKEREGEQIDRALLKNVLDIYVEIGMGQMERYEEDFESFMLQDTSSYYSRKASSWIQEDSCPDYMLKSEECLKKERERVAHYLHSSSEPKLVEKVQHELLVVFASQLLEKEHSGCRALLRDDKVDDLSRMYRLYHKILRGLEPVANIFKQHVTAEGNALVQQAEDTATNQVANTASVQEQVLIRKVIELHDKYMVYVTECFQNHTLFHKALKEAFEIFCNKTVAGSSSAELLATFCDNILKKGGSEKLSDEAIEDTLEKVVKLLAYISDKDLFAEFYRKKLARRLLFDRSANDDHERSILTKLKQQCGGQFTSKMEGMVTDLTLARENQNSFEDYLGSNPAANPGIDLTVTVLTTGFWPSYKSFDINLPSEMIKCVEVFKGFYETKTKHRKLTWIYSLGTCHINGKFDQKAIELIVSTYQAAVLLLFNTTDKLSYTEILAQLNLSHEDLVRLLHSLSCAKYKILLKEPNTKTVSQNDAFEFNSKFTDRMRRIKIPLPPVDERKKVVEDVDKDRRYAIDAAIVRIMKSRKVLGHQQLVSECVEQLSRMFKPDIKAIKKRMEDLITRDYLERDKENPNMFRYLA

Columns and labels:
[1] = variants of: B1; conditions: with skp1a_arath SKP1A
iaa7_arath IAA7, Q38825 = variants of: B1; conditions: with iaa7_arath IAA7, Q38825
iaa7_arath IAA7, Q38825, sequence (Q38825 whole entry): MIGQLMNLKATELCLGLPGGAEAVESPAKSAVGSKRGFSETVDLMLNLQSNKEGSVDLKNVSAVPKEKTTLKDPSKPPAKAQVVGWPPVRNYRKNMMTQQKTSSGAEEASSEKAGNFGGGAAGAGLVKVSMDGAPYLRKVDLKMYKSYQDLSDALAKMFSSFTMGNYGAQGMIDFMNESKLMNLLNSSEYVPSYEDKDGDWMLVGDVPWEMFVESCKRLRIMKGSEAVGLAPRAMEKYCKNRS

| Variant | effect of a mutation on the interaction [1] | effect of a mutation on the interaction (iaa7_arath IAA7, Q38825) |
| --- | --- | --- |
| F112I | decreasing interaction | decreasing interaction |
| F112V | decreasing interaction | decreasing interaction |

From IntAct's records for PubMed 12839993
